Measurements taken from article PMC5669500, “Scaffolding the cup-shaped double membrane in autophagy” (PLoS Computational Biology, 2017).

What was measured:
Assay in all cases: pull-down; 20 μg GST-Atg13 (351–458) immobilised on 30 μL Glutathione Sepharose 4B; Atg17-Atg31-Atg29 complex at 10 μM; 4°C, 1 hour; 20 mM Tris pH 8, 150 mM NaCl, 0.1 mM TCEP; 3 washes; SDS-PAGE
Conditions in all cases: both partners purified
[1] = molecular target: T1, Atg17-Atg31-Atg29 complex with Atg17 mutant M1 (K318D/Q326D/K329D) (Saccharomyces cerevisiae, UniProt Q06410 1-417; Q12421 1-196; Q12092 1-213, K318D | Q326D | K329D)
T1 construct: Atg17, Saccharomyces cerevisiae; Atg31, Saccharomyces cerevisiae; Atg29, Saccharomyces cerevisiae; a TEV cleavage site follows the His6 tag; Mutations introduced into the Atg17-Atg31-Atg29 construct by quick-change mutagenesis; source: E. coli BL21 (DE3), co-expressed from pST39, purified (Ni-NTA, Superose 6); copies: 2 + +
T1 sequence (looked up) 1: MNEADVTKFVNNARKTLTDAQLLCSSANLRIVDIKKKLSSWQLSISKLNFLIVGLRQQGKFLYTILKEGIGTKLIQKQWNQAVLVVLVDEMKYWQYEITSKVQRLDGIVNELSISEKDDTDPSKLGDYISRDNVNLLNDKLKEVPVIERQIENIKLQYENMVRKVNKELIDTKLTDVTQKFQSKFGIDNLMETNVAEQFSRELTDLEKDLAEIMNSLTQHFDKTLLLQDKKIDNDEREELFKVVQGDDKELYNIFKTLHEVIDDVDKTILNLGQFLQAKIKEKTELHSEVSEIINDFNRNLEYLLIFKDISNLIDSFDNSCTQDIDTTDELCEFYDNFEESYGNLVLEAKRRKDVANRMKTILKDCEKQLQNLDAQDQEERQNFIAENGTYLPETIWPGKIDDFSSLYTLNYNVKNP
T1 sequence (looked up) 2: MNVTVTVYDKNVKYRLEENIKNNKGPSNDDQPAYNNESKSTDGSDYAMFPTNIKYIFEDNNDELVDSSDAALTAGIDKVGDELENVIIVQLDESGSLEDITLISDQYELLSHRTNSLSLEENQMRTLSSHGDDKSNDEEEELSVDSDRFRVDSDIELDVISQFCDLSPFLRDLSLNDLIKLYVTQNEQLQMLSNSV
T1 sequence (looked up) 3: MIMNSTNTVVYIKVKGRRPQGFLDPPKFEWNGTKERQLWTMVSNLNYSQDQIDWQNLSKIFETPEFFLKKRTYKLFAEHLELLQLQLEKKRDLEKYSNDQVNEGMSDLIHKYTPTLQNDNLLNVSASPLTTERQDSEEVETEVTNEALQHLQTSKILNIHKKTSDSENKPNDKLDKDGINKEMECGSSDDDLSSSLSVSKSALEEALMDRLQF

[2] = molecular target: T2, Atg17-Atg31-Atg29 complex with Atg17 mutant M2 (K318D/K329D/Y93E/W94E) (Saccharomyces cerevisiae, UniProt Q06410 1-417; Q12421 1-196; Q12092 1-213, K318D | K329D | Y93E | W94E)
T2 construct: Atg17, Saccharomyces cerevisiae; Atg31, Saccharomyces cerevisiae; Atg29, Saccharomyces cerevisiae; a TEV cleavage site follows the His6 tag; Mutations introduced into the Atg17-Atg31-Atg29 construct by quick-change mutagenesis; source: E. coli BL21 (DE3), co-expressed from pST39, purified (Ni-NTA, Superose 6); copies: 2 + +
T2 sequence (looked up) 1: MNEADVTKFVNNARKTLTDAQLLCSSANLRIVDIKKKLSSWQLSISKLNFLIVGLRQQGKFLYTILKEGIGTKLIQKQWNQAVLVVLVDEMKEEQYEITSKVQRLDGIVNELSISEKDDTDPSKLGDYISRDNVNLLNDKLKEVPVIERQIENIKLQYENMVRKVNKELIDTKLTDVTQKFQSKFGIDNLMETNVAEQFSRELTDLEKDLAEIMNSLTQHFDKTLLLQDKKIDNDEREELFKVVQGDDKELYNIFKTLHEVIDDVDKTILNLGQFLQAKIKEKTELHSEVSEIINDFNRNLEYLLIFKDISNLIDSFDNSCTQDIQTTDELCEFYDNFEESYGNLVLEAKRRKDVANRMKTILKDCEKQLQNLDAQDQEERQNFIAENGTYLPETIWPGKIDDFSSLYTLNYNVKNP
T2 sequence (looked up) 2: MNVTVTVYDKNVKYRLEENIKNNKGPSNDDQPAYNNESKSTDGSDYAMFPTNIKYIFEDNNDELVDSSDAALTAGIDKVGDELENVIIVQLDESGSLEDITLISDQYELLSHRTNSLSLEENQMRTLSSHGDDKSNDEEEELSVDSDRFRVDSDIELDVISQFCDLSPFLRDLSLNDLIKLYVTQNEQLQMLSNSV
T2 sequence (looked up) 3: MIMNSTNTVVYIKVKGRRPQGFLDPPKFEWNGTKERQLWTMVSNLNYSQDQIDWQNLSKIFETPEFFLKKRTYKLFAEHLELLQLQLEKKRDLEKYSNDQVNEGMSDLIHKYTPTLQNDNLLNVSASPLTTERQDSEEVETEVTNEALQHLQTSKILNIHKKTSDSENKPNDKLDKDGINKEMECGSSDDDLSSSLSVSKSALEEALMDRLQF

[3] = molecular target: T3, Atg17-Atg31-Atg29 complex with Atg17 mutant M3 (K8D/R14D/K249D) (Saccharomyces cerevisiae, UniProt Q06410 1-417; Q12421 1-196; Q12092 1-213, K8D | R14D | K249D)
T3 construct: Atg17, Saccharomyces cerevisiae; Atg31, Saccharomyces cerevisiae; Atg29, Saccharomyces cerevisiae; a TEV cleavage site follows the His6 tag; Mutations introduced into the Atg17-Atg31-Atg29 construct by quick-change mutagenesis; source: E. coli BL21 (DE3), co-expressed from pST39, purified (Ni-NTA, Superose 6); copies: 2 + +
T3 sequence (looked up) 1: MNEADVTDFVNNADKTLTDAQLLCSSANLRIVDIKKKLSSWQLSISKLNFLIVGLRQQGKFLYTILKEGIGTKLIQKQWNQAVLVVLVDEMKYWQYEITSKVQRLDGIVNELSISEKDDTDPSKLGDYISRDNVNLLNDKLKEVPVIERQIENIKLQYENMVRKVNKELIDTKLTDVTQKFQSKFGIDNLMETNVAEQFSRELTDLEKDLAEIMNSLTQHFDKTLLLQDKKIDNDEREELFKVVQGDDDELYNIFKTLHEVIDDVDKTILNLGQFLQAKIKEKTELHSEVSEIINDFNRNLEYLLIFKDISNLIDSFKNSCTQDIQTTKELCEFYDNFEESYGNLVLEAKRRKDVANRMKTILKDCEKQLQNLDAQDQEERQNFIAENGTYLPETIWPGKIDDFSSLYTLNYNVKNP
T3 sequence (looked up) 2: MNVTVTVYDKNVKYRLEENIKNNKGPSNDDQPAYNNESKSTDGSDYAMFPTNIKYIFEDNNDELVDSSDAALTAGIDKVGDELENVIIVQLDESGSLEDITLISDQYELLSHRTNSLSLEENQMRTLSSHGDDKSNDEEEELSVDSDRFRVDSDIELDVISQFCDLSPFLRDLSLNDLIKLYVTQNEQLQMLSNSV
T3 sequence (looked up) 3: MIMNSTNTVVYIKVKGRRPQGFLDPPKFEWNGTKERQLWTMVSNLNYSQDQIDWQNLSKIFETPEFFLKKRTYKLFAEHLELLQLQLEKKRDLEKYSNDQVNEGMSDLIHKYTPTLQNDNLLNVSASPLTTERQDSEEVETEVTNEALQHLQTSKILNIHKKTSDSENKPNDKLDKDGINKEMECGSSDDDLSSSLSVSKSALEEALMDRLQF

Measured: binding result

B1: GST-Atg13 (351–458) (domain or fragment, Saccharomyces cerevisiae, UniProt Q06628 351-458, looked up)
chain: TRANSFEPQSWQKKVYPISRPVQPFKVGSIGSQSASRNPSNSSFFNQPPVHRPSMSSNYGPQMNIEGTSVGSTSKYSSSFGNIRRHSSVKTTENAEKVSKAVKSPLQP
notes: a TEV cleavage site follows the GST tag; source: recombinant from pGST2 vector, purified (Glutathione Sepharose 4B, HiLoad Superdex 200 16/60); not shown: GST, N-terminal, kept
binds: all assays above
